The results in this text go back to patent US20110300138A1 (published 2011).

For experiment [1], the target named is TSH receptor (full length human TSHR) (human) (UniProt P16473). The experiment can be described thus: competition ELISA: inhibition of M22 Fab-peroxidase (competitor) binding to TSHR coated wells; negative control at 0.1 µg/mL diluted in HBD serum pool.
In experiment [2] the target is human thyroid stimulating hormone receptor (TSHR), full length (human) (UniProt P16473). The experiment is described as follows: 125I-K1-70 Fab (competitor) binding to TSHR coated tubes; negative control MAb 0.1 µg/mL in assay buffer.
For experiment [3] the target is unchanged. The experiment can be described thus: 125I-K1-70 Fab (competitor) binding to TSHR coated tubes; negative control MAb 100 µg/mL in assay buffer.
The target of experiment [4] is TSH receptor (TSHR), full length human, coated on tubes (human) (UniProt P16473). The experiment is described as follows: inhibition of 125I-K1-18 IgG binding to TSHR coated tubes; competitor 125I-K1-18 IgG; negative control sample at 100 µg/mL in assay buffer.
Experiment [5] concerns the target TSH receptor (TSHR) coated on tubes (human) (UniProt P16473). The experiment is described as follows: inhibition of 125I-K1-70 IgG binding to TSHR coated tubes; negative control 10 µg/mL in assay buffer.
Experiment [6] addresses thyroid stimulating hormone receptor (TSHR), full length human TSHR (human) (UniProt P16473). The experiment is described as follows: TSH-biotin competition ELISA, TSHR coated wells; negative control, 10 µg/mL in HBD serum.
Experiment [7] concerns the target TSH receptor (full length human TSHR) (human) (UniProt P16473). The experiment can be described thus: competition ELISA: inhibition of M22 Fab-peroxidase (competitor) binding to TSHR coated wells; negative control at 0.1 µg/mL diluted in assay buffer. In general terms: An ELISA detects its analyte on a solid surface through an enzyme-linked reagent.
Experiment [8] concerns the target TSH receptor (full length human TSHR) coated on tubes (human) (UniProt P16473). The experiment is described as follows: 125I-TSH binding inhibition read against NIBSC 90/672; mean over 10, 30 and 100 ng/mL, in serum.
For experiment [9] the target is unchanged. The experiment can be described thus: 125I-TSH binding inhibition read against NIBSC 90/672; 30 ng/mL, in assay buffer.
For experiment [10], the target named is TSHR with Arg109 mutated to Ala, expressed in CHO cells (human) (UniProt P16473). The experiment is described as follows: cell-based or functional assay.
The target in experiment [11] is wild type TSHR (human TSH receptor) expressed in CHO cells (human) (UniProt P16473). The experiment can be described thus: cell-based or functional assay.
Experiment [12] addresses TSHR (thyroid stimulating hormone receptor), full length human (human) (UniProt P16473). The experiment can be described thus: competitor ^125I-K1-70 IgG, TSHR coated tubes; 1 µg/mL in HBD.
Experiment [13] deals with thyroid stimulating hormone receptor (TSHR), full length human TSHR (human) (UniProt P16473). The experiment is described as follows: TSH-biotin competition ELISA, TSHR coated wells; 1 µg/mL in assay buffer.
For experiment [14], the target named is TSHR (thyroid stimulating hormone receptor), full length human (human) (UniProt P16473). The experiment is described as follows: competitor ^125I-K1-70 IgG, TSHR coated tubes; 0.01 µg/mL in HBD.
Experiment [15] concerns the target TSH receptor (full length human TSHR) (human) (UniProt P16473). The experiment can be described thus: competition ELISA: inhibition of M22 Fab-peroxidase (competitor) binding to TSHR coated wells; test sample at 0.1 µg/mL diluted in assay buffer.
For experiment [16], the target named is TSHR (thyroid stimulating hormone receptor), full length human (human) (UniProt P16473). The experiment is described as follows: competitor ^125I-K1-70 IgG, TSHR coated tubes; 10 µg/mL in assay buffer.
Experiment [17] has as its target full length wild type human TSHR (human) (UniProt P16473). The experiment can be described thus: TSHR260-AP bridge ELISA, wild type TSHR on wells; IgG at 0.5 µg/mL in HBD.
In experiment [18] the target is TSHR (full length) coated on tubes (human) (UniProt P16473). The experiment is described as follows: inhibition of 125I-K1-18 Fab (competitor) binding to TSHR coated tubes; test sample 0.1 µg/mL in assay buffer.
Experiment [19] addresses thyroid stimulating hormone receptor (TSHR), full length human TSHR (human) (UniProt P16473). The experiment is described as follows: TSH-biotin competition ELISA, TSHR coated wells; 0.1 µg/mL in HBD serum.
Experiment [20] addresses TSH receptor (TSHR) coated on tubes (human) (UniProt P16473). The experiment is described as follows: inhibition of 125I-K1-70 IgG binding to TSHR coated tubes; sample 1 µg/mL in assay buffer.
In experiment [21] the target is human thyroid stimulating hormone receptor (TSHR), full length (human) (UniProt P16473). The experiment can be described thus: 125I-K1-18 Fab competition, TSHR coated tubes; 0.1 µg/mL in assay buffer.
Experiment [22] concerns the target human TSH receptor (full length) coated on ELISA plate wells (human) (UniProt P16473). The experiment is described as follows: TSH-biotin binding inhibition ELISA, TSHR coated wells; 0.1 µg/mL in assay buffer + 100 µg/mL 5B3 IgG.
For experiment [23], the target named is human thyroid stimulating hormone receptor (TSHR), full length (human) (UniProt P16473). The experiment can be described thus: 125I-K1-18 Fab competition, TSHR coated tubes; 10 µg/mL in assay buffer.
The target of experiment [24] is thyroid stimulating hormone receptor (full length human TSHR) (human) (UniProt P16473). The experiment is described as follows: ELISA, inhibition of TSH-biotin binding to TSHR coated wells; 1 µg/mL, diluted in assay buffer.
For experiment [25] the target is unchanged. The experiment is described as follows: ELISA: inhibition of M22 Fab-peroxidase (competitor) binding to TSHR coated wells; 1 µg/mL, diluted in HBD serum pool.
For experiment [26] the target is unchanged. The experiment can be described thus: ELISA: inhibition of M22 Fab-peroxidase (competitor) binding to TSHR coated wells; 0.1 µg/mL, diluted in HBD serum pool.

Consider 5B3 IgG (antibody), for which the Inhibition of binding (%) is 3% in experiment [1]; 2.2% in experiment [2]; 1.4% in experiment [3]; 6.7% in [4]; -2.1% in experiment [5]; -1.6% in [6]. Also, the Inhibition of binding (%) in experiment [7] turned out to be 1.4%.
In turn, M22 IgG (antibody) gave a mean units/mg in experiment [8] of 131 units/mg. In experiment [9], this molecule yielded a units/L of 8.6 units/L and a units/mg of 287 units/mg.
As for TSH (ligand), in experiment [10], the Cyclic AMP produced, mutated TSHR, TSH 0.01 ng/mL was 3.15 pmol/mL; the Cyclic AMP produced, mutated TSHR, TSH 0.03 ng/mL is 4.92 pmol/mL; the Cyclic AMP produced, mutated TSHR, TSH 0.1 ng/mL worked out at 8.39 pmol/mL; the Cyclic AMP produced, mutated TSHR, TSH 0.3 ng/mL came to 39.2 pmol/mL. Also, in experiment [10], the Cyclic AMP produced, mutated TSHR, TSH 1 ng/mL was found to be 43.8 pmol/mL; the Cyclic AMP produced, mutated TSHR, TSH 3 ng/mL is 55.2 pmol/mL; the Mutated/Wild type (%) of cyclic AMP produced, TSH 0.01 ng/mL stood at 115%; the Mutated/Wild type (%) of cyclic AMP produced, TSH 0.03 ng/mL worked out at 116%. In experiment [10], this molecule came in with a Mutated/Wild type (%) of cyclic AMP produced, TSH 0.1 ng/mL of 89%; a Mutated/Wild type (%) of cyclic AMP produced, TSH 0.3 ng/mL of 99%; a Mutated/Wild type (%) of cyclic AMP produced, TSH 1 ng/mL of 72%; a Mutated/wild type (%) of cyclic AMP produced; TSH 3 ng/mL of 78%. In [11], this molecule came in with a Cyclic AMP produced, wild type TSHR, TSH 0.01 ng/mL of 2.74 pmol/mL; a Cyclic AMP produced, wild type TSHR, TSH 0.03 ng/mL of 4.24 pmol/mL; a Cyclic AMP produced, wild type TSHR, TSH 0.1 ng/mL of 9.39 pmol/mL; a Cyclic AMP produced, wild type TSHR, TSH 0.3 ng/mL of 39.6 pmol/mL. Moreover, in experiment [11], the Cyclic AMP produced, wild type TSHR, TSH 1 ng/mL was determined as 61.2 pmol/mL and the Cyclic AMP produced, wild type TSHR, TSH 3 ng/mL worked out at 70.6 pmol/mL.
Turning to 9D33 IgG (antibody), the Inhibition of binding (%) was found to be 40.5% in [12]; 81.8% in experiment [13]; 0.6% in experiment [14]; 35.1% in experiment [15]; 41.7% in experiment [16]; 48.6% in [18]. Besides, the Inhibition of binding (%) in experiment [19] turned out to be 39%. In [17], this molecule yielded a Mean absorbance at 405 nm (absorbance at 405 nm) of 0.273.

B1: 5C9 IgG (antibody, from another filing, V domains shown)
VH: EVQLVESGGGLIQPGGSLRLSCAASGFTVSSNYMSWVRQAPGKGLEWVSVTYSGGSTSYADSVKGRFTISRDNSKNTLYLQMNSLRAEDTAVYYCARGGRYCSSISCYARSGCDYWGQGTLVTVSS
VL: AIQMTQSPSSLSASVGDRVTITCRASQSISNYLNWYQQKPGKAPKLLIYAASSLQSGVPSRFSGSGSGTDFTLTISSLQPEDFATYYCQQSYSSPSTTFGQGTKLEIK
In the case of B1, the Inhibition of binding (%) in experiment [20] came to 56.4%; in experiment [21], 27.7%; in [23], 63.8%; in experiment [24], 31.4%; in experiment [25] it was 7.8%; in experiment [26] it was 6.3%. Further, the % inhibition of TSH-biotin binding in [22] came out at 36.3%.
